Assay results reported in the supplement of paper PMC7125110.
± gives the standard error. For some assays here: This sample holds only a part of the variants without activity.

B1: glmS ribozyme (parent)
chain: AUAAAAGCGCCAGAACUACAGAAAUGUAGUUGACGAGGAGGAGGUUUAUCGAAUUUUCGGCGGAUGCCUCCAAA

Experiments:
Conditions in all cases: with glucosamine-6-phosphate
glucosamine-6-phosphate [1] = variants of: B1; experiment: kcat; higher = faster cleavage; RNA array
Method in brief: (§1)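 Tiles bearing barcoded ribozyme variants, transcribed in situ by E. coli RNA polymerase on sequenced MiSeq chips, were imaged over ~14 h at 37 °C using a hybridised Cy3 probe. Glucosamine-6-phosphate was supplied at 40 μM to 10 mM in HEPES/KCl/Mg(OAc)2 buffer. kobs came from one- or two-exponential decay fits to normalised per-tile medians, and weighted Michaelis–Menten fits then provided kcat and KM.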

glucosamine-6-phosphate [2] = variants of: B1; experiment: self-cleavage kobs at 160 uM GlcN6P; higher = faster cleavage; RNA array
Method in brief: as §1

glucosamine-6-phosphate [3] = variants of: B1; experiment: self-cleavage kobs at 640 uM GlcN6P; higher = faster cleavage; RNA array
Method in brief: as §1

glucosamine-6-phosphate [4] = variants of: B1; experiment: self-cleavage kobs at 2500 uM GlcN6P; higher = faster cleavage; RNA array
Method in brief: as §1

glucosamine-6-phosphate [5] = variants of: B1; experiment: self-cleavage kobs at 10000 uM GlcN6P; higher = faster cleavage; RNA array
Method in brief: as §1

glucosamine-6-phosphate [6] = variants of: B1; experiment: KM; higher = weaker cofactor use; RNA array
Method in brief: as §1

glucosamine-6-phosphate [7] = variants of: B1; experiment: self-cleavage kobs at 40 uM GlcN6P; higher = faster cleavage; RNA array
Method in brief: as §1

| Variant | kcat (glucosamine-6-phosphate [1]) | self-cleavage kobs at 160 uM GlcN6P (glucosamine-6-phosphate [2]) | self-cleavage kobs at 640 uM GlcN6P (glucosamine-6-phosphate [3]) | self-cleavage kobs at 2500 uM GlcN6P (glucosamine-6-phosphate [4]) | self-cleavage kobs at 10000 uM GlcN6P (glucosamine-6-phosphate [5]) | KM (glucosamine-6-phosphate [6]) | self-cleavage kobs at 40 uM GlcN6P (glucosamine-6-phosphate [7]) |
| --- | --- | --- | --- | --- | --- | --- | --- |
| AUAAAAGCGCCAGAACUACAGAAAUGUAGUUGACGAGGAGGAGGUUUAUCGAAUUUUCGGCGGAUGUCCCCAAA | 0.000129 ± 6e-05 s⁻¹ | 4.3e-05 ± 2.1e-05 s⁻¹ | 0.000113 ± 2e-05 s⁻¹ | 4.99e-05 ± 2.3e-05 s⁻¹ | 0.000226 ± 3.7e-05 s⁻¹ |  |  |
| AUAAAAGCGCCAGAACUACAGAAAUGUAGUUGACGAGGAGGAGGUCUAUCGAAUGUUCGGCGGAUGCCUCCAAA | 0.00362 ± 0.00063 s⁻¹ | 0.000255 ± 5.8e-05 s⁻¹ | 0.00107 ± 0.00023 s⁻¹ | 0.00259 ± 0.00049 s⁻¹ | 0.00271 ± 0.00058 s⁻¹ | 1790 ± 450 µM | 8.17e-05 ± 2.1e-05 s⁻¹ |
| AUAAAAGCGCCAGUACUACAGAAAUGUAGUUGACGAGGAGGAGGUUUAUCGAAUUUUCGGCGGAUGCCACCAAA | 0.000113 ± 2e-05 s⁻¹ |  | 5.17e-05 ± 1.1e-05 s⁻¹ | 7.13e-05 ± 1.7e-05 s⁻¹ | 0.000122 ± 2.4e-05 s⁻¹ | 802 ± 390 µM |  |
| AUAAAAGCGCCAGAACUACAGAAAUGUAGUUGACGAGGAGGAGCUUUAUCGGAUUUUCGGCGGAUGCCUCCAAA | < 1e-05 s⁻¹ | < 1e-05 s⁻¹ | < 1e-05 s⁻¹ |  |  | 279 ± 110 µM | < 1e-05 s⁻¹ |
| AUAAAAGCGCCAGAACUACAGAAAUGUAGUUGACGAGGAGGGGGUAUAUCGAAUUUUCGGCGGAUGCCUCCAAA | 0.00476 ± 0.00084 s⁻¹ | 0.000896 ± 0.00031 s⁻¹ | 0.00178 ± 0.00057 s⁻¹ |  | 0.00455 ± 0.00072 s⁻¹ | 1200 ± 320 µM | 0.000149 ± 2.5e-05 s⁻¹ |
| AUAAAAGCGCCAGAACUACAGAAAUGUAGUUCACGAGGAGGAGGUUUAUCGAAUUUUCGGCGGAUGCCUCAAAA | 1.79e-05 ± 3.7e-06 s⁻¹ |  |  |  |  |  |  |
| AUAAAAGCGCCAGAACUACAGAAAUGUAGUUGACGAGGAGGAGGUUGAUCGAAUUUUCGGCGGUUGCCUCCAAA | 2.76e-05 ± 3.5e-06 s⁻¹ |  |  |  |  |  |  |
| AUAAAAGCGCCAGAACUACAGAAAUGUAGUUGACGAGGAGGAGGUUUAUCGAAUUUUCGGCGGAUGUCUCUAAA | 0.00245 ± 0.0012 s⁻¹ | 0.000128 ± 1.6e-05 s⁻¹ | 0.000403 ± 3.1e-05 s⁻¹ | 0.00121 ± 0.00026 s⁻¹ | 0.00213 ± 0.00029 s⁻¹ |  | 6.24e-05 ± 6.8e-06 s⁻¹ |
| AUAAAAGCGCCAGACCUACAGAAAUGUAGUUAACGAGGAGGAGGUUUAUCGAAUAUUCGGCGGAUGCCUCCAAA | 0.00195 ± 0.00087 s⁻¹ | 7.61e-05 ± 2.3e-05 s⁻¹ | 0.000233 ± 5.6e-05 s⁻¹ | 0.000416 ± 0.00012 s⁻¹ | 0.00137 ± 0.00022 s⁻¹ |  |  |
| AUAAAAGCGCCAGAACUACAGAAAUGUAGCUGACGAGGAGGAGGUUUAUCGAAUUUUCGGCGGAUGCCUCUAAA | 0.000335 ± 3.4e-05 s⁻¹ | 4.2e-05 ± 6.8e-06 s⁻¹ | 9.35e-05 ± 1e-05 s⁻¹ | 0.000195 ± 1.6e-05 s⁻¹ | 0.000307 ± 2.3e-05 s⁻¹ | 1530 ± 340 µM |  |
| AUAAAAGCGCCAGAACUACAGAAAUGUAGUUGACGCGGAGGAGGUUUAUGAAAUUUUCGGCGGAUGCCUCCAAA | < 1e-05 s⁻¹ | < 1e-05 s⁻¹ |  |  |  |  |  |
| AUAAAAGCGCUAGAACUACAGAAAUGUAGUCGACGAGGAGGAGGUUUAUCGAAUUUUCGGCGGAUGCCUCCAAA | 0.000563 ± 7.8e-05 s⁻¹ | 2.97e-05 ± 1.5e-05 s⁻¹ | 0.000179 ± 2.3e-05 s⁻¹ | 0.000364 ± 5.9e-05 s⁻¹ | 0.000465 ± 5.5e-05 s⁻¹ | 1620 ± 460 µM |  |
| AUAAAAGCGCCAGAACUACAGAAAUGUAGUCGACGAGGAGGAGGUUUAUCGAAUUUUCGGCGGAUUCCUCCAAA | 0.000326 ± 6.8e-05 s⁻¹ |  |  | 0.000124 ± 1.6e-05 s⁻¹ | 0.000214 ± 3.5e-05 s⁻¹ | 4610 ± 1700 µM |  |
| AUAAAAGCGCCAGUACUACAGAAAUGUAGUUGACGAGGAGGAGGUUUAUCGAAAUUUCGGCGGAUGCCUCCAAA | 0.00906 ± 0.0023 s⁻¹ | 0.000834 ± 0.00014 s⁻¹ | 0.00228 ± 0.00033 s⁻¹ | 0.00565 ± 0.00092 s⁻¹ | 0.00909 ± 0.002 s⁻¹ | 1560 ± 560 µM | 0.000324 ± 5.9e-05 s⁻¹ |
| AUAAAAGCGCCAGAACUACAGAAAUGUAGUUGACGAGGAGGAGGUUUAUCGAAUUUUCGGCGGAGGCCUACAAA | 0.000185 ± 1.6e-05 s⁻¹ |  | 7.93e-05 ± 1.6e-05 s⁻¹ | 0.000183 ± 6.7e-05 s⁻¹ | 0.000167 ± 2.7e-05 s⁻¹ | 825 ± 210 µM |  |
| AUAAAAGCGCCAGAACUACAGAAAUGUAGUUGACGAGGAGGAGGUUUUUCGAAUUUUCGGCGGAAGCCUCCAAA | 5.33e-05 ± 4.6e-06 s⁻¹ | < 1e-05 s⁻¹ |  |  |  |  |  |
| AUAAAAGCGCCAGAACUACAGAAAUGUAGUUGCCGAGGAGGAGGUUUAUCGAAUUUUCGGCGGAUGCCUCCAAA | 0.000505 ± 2.5e-05 s⁻¹ | 2.95e-05 ± 1.7e-06 s⁻¹ | 9.27e-05 ± 1.9e-06 s⁻¹ | 0.000541 ± 0.00018 s⁻¹ | 0.000395 ± 6.8e-06 s⁻¹ | 2800 ± 240 µM | 1.4e-05 ± 2.6e-06 s⁻¹ |
